Test results from the supplement of paper PMC7877785.
± gives the uncertainty stated by the source.

Test: self-splicing fitness, log relative to wild type (ln ratio); higher = more splicing; Tetrahymena group I intron in knt gene, E. coli kanamycin selection, DiMSum; sequences stand for … in CUCUCU…GGAGGGAAAAGUUAUCAGGCAUGCACCUGGUAGCUAGUCUUUAAACCAAUAGAUUGCAUCGGUUUAAAAGGCAAGACCGUCAAAUUGCGGGAAAGGGGUCAACAGCCGUUCAGUACCAAGUCUCAGGGGAAACUUUGAGAUGGCCUUGCAAAGGGUAUGGUAAUAAGCUGACGGACAUGGUCCUAACCACGCAGCCAAGUCCUAAGUCAACAGAUCUUCUGUUGAUAUGGAUGCAGUUCACAGACUAAAUGUCGGUCGGGGAAGAUGUAUUCUUCUCAUAAGAUAUAGUCGGACCUCUCCUUAAUGGGAGCUAGCGGAUGAAGUGAUGCAACACUGGAGCCGCUGGGAACUAAUUUGUAUGCGAAAGUAUAUUGAUUAGUUUUGGAGUACUCGUGGUCG
Method in brief: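 Fitness was computed with DiMSum as the error-weighted combination of replicate fold changes, kanamycin versus none, each normalised to wild type. The library randomised all eight intron nucleotides of the P1ex region, with the intron placed in the knt kanamycin-resistance gene on pET-22b(+) in E. coli BL21(DE3). Six replicate transformations were grown overnight at 37°C or 30°C on LB agar with or without 25 μg/mL kanamycin, plus 100 μg/mL carbenicillin, 50 μM IPTG and 0.2% rhamnose. Pooled colonies were amplicon-sequenced on an Illumina HiSeq 2500.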

Sequence	self-splicing fitness (ln) (30 °C)	self-splicing fitness (ln) (37 °C)
UCAAAGCAAUAUUACGGCAA	-1.37 ± 0.15	-0.568 ± 0.12
GCAUAGCAAUAUUACGGGGA	-3.23 ± 0.28	-2.37 ± 0.19
AUUAAGCAAUAUUACGAACU	-0.318 ± 0.12	0.315 ± 0.16
CUCAAGCAAUAUUACGAGAA	-1.89 ± 0.31	-1.1 ± 0.24
AAUGAGCAAUAUUACGUAGG	-3.19 ± 0.15	-2.6 ± 0.24
UGCCAGCAAUAUUACGGUAC		-2.89 ± 0.47
UAAGAGCAAUAUUACGGUUG	-3.21 ± 0.2	-1.87 ± 0.18
GAGCAGCAAUAUUACGCAAG	-1.36 ± 0.16	-0.218 ± 0.3
CAGUAGCAAUAUUACGUAGA	-3.03 ± 0.14	-1.85 ± 0.16
GCUAAGCAAUAUUACGCUCC	-1.01 ± 0.13	-1.07 ± 0.18
GCCCAGCAAUAUUACGCGAU	-2.76 ± 0.13	0.119 ± 0.1
ACGCAGCAAUAUUACGGCCC	-0.00164 ± 0.16	0.0347 ± 0.18
ACCGAGCAAUAUUACGGCCU	-0.622 ± 0.086	0.418 ± 0.11
UAGCAGCAAUAUUACGUUGC	-2.57 ± 0.21	-1.91 ± 0.21
CCAUAGCAAUAUUACGGUUA	-3.57 ± 0.29	-2.73 ± 0.21
UGUAAGCAAUAUUACGAUGG	-2.9 ± 0.13	-0.756 ± 0.12
CUACAGCAAUAUUACGGGAC	-2.98 ± 0.14	-2.06 ± 0.15
CAAAAGCAAUAUUACGGGGC	-3.66 ± 0.26	-3.02 ± 0.23
GGGCAGCAAUAUUACGCUUC		-1.85 ± 0.17
UGUGAGCAAUAUUACGAACG	-0.83 ± 0.075	0.261 ± 0.086
AGAAAGCAAUAUUACGGUGC	-2.39 ± 0.15	-2.6 ± 0.31
CGCUAGCAAUAUUACGUUUG	-2.31 ± 0.085	-0.505 ± 0.094
GUUCAGCAAUAUUACGAUAG	-2.65 ± 0.2	-1.53 ± 0.18
GUUAAGCAAUAUUACGAUUG	-3.09 ± 0.34	-1.63 ± 0.34
GAAUAGCAAUAUUACGGAUC	-0.118 ± 0.058	-0.207 ± 0.073

Sequence	self-splicing fitness (ln) (30 °C)	self-splicing fitness (ln) (37 °C)
GGUUAGCAAUAUUACGCGUG	-0.908 ± 0.051	-0.592 ± 0.063
CGGGAGCAAUAUUACGGCCG	-3.09 ± 0.31	
CCGAAGCAAUAUUACGCUCU	-3.24 ± 0.4	
UAGGAGCAAUAUUACGUAGG	-3.28 ± 0.2	-1.15 ± 0.18
CGCAAGCAAUAUUACGUUUG	-4.31 ± 0.26	-2.8 ± 0.24
AUCAAGCAAUAUUACGUUCG	-1.5 ± 0.086	-0.132 ± 0.091
AAGCAGCAAUAUUACGCCUA	0.0257 ± 0.11	-0.183 ± 0.13
CGGAAGCAAUAUUACGCUUA		-2.15 ± 0.32
UGCAAGCAAUAUUACGAAUA	-1.88 ± 0.12	-1.04 ± 0.13
CGCUAGCAAUAUUACGCCGA	-0.916 ± 0.21	-0.258 ± 0.15
UUAGAGCAAUAUUACGGUCG	-1.64 ± 0.19	-0.691 ± 0.31
AACCAGCAAUAUUACGAGAA	-1.71 ± 0.14	-1.02 ± 0.13
UACAAGCAAUAUUACGUUAG	-3.02 ± 0.11	-2.11 ± 0.097
UCUGAGCAAUAUUACGCAAC		-2.24 ± 0.29
AUGGAGCAAUAUUACGUUAC	-3.1 ± 0.25	
CGAUAGCAAUAUUACGGGGC	-3.2 ± 0.35	-2.56 ± 0.39
AGAAAGCAAUAUUACGGGCA	-0.6 ± 0.14	-0.0746 ± 0.12
UCUCAGCAAUAUUACGAUCA	-0.104 ± 0.17	-0.219 ± 0.17
AGACAGCAAUAUUACGACAG	-3.42 ± 0.14	-0.41 ± 0.12
UCCCAGCAAUAUUACGACGU	-1.53 ± 0.071	-0.16 ± 0.084
GGUAAGCAAUAUUACGGUGC	-1.14 ± 0.15	-0.983 ± 0.26
CAGUAGCAAUAUUACGUGUG	-1.64 ± 0.062	-1.23 ± 0.085
GCCUAGCAAUAUUACGCGUG	-4.17 ± 0.42	-0.758 ± 0.17
UACUAGCAAUAUUACGAGCA	-0.343 ± 0.12	0.447 ± 0.15
GGAAAGCAAUAUUACGGAAC	-3.58 ± 0.43	

Sequence	self-splicing fitness (ln) (30 °C)	self-splicing fitness (ln) (37 °C)
UGACAGCAAUAUUACGUAAG	-1.2 ± 0.064	-0.489 ± 0.067
AGAUAGCAAUAUUACGUAGG	-3.49 ± 0.17	-1.41 ± 0.18
UCCUAGCAAUAUUACGUGCG	-3.5 ± 0.2	-1.98 ± 0.16
CUCAAGCAAUAUUACGAGCU	-4.33 ± 0.3	-4.08 ± 0.39
AUAGAGCAAUAUUACGUCUA	-0.2 ± 0.076	0.816 ± 0.11
CUAUAGCAAUAUUACGAGCA	-2.91 ± 0.25	-2.36 ± 0.33
AUGGAGCAAUAUUACGGGUC	-4.63 ± 0.29	-3.52 ± 0.28
AAUGAGCAAUAUUACGGGCA	-3.76 ± 0.42	-1.24 ± 0.29
CUGGAGCAAUAUUACGACUG	0.202 ± 0.15	0.00578 ± 0.21
UCCGAGCAAUAUUACGCAAA	-3.59 ± 0.33	-2.51 ± 0.31
UAGUAGCAAUAUUACGUAGA	-3.53 ± 0.24	-1.93 ± 0.17
UGGCAGCAAUAUUACGUUCG	-0.337 ± 0.068	0.283 ± 0.096
AUACAGCAAUAUUACGAAGA	-3.16 ± 0.2	-2.04 ± 0.17
CGCCAGCAAUAUUACGUUCC	-2.71 ± 0.16	-1.67 ± 0.37
UAAUAGCAAUAUUACGCCCU	-1.59 ± 0.4	-0.36 ± 0.38
GAGAAGCAAUAUUACGGCAG	-3.08 ± 0.41	-1.85 ± 0.3
GACAAGCAAUAUUACGCUAC	-3.62 ± 0.31	-2.54 ± 0.23
GAGCAGCAAUAUUACGCCUA	-0.758 ± 0.064	0.0984 ± 0.085
CCCCAGCAAUAUUACGAGCU	-3.85 ± 0.19	-2.85 ± 0.2
GGGAAGCAAUAUUACGGCAA	-0.863 ± 0.14	-1.02 ± 0.14
AUACAGCAAUAUUACGUUUG	-2.93 ± 0.11	-2.35 ± 0.14
CCCAAGCAAUAUUACGAGUG	-2.61 ± 0.16	-2.94 ± 0.17
AUCUAGCAAUAUUACGUCGU	-0.83 ± 0.1	-1.21 ± 0.11
ACGUAGCAAUAUUACGCGAA	-1.46 ± 0.16	-0.935 ± 0.18
UUGUAGCAAUAUUACGAGCG	-1.01 ± 0.14	-0.454 ± 0.28

Sequence	self-splicing fitness (ln) (30 °C)	self-splicing fitness (ln) (37 °C)
AGCGAGCAAUAUUACGAUAG	-3.64 ± 0.43	-1.76 ± 0.35
CGAGAGCAAUAUUACGGCGC	-2.76 ± 0.21	-1.62 ± 0.21
UUCCAGCAAUAUUACGCUUU	-3.23 ± 0.23	-0.119 ± 0.12
CCUUAGCAAUAUUACGGAAC		-2.73 ± 0.44
GGAAAGCAAUAUUACGCCCU	-1.16 ± 0.21	-1.25 ± 0.21
CGAUAGCAAUAUUACGAUAC		-2.88 ± 0.41
UUUCAGCAAUAUUACGAGAA	-1.92 ± 0.37	-1.49 ± 0.24
AAGCAGCAAUAUUACGCCCG	-0.844 ± 0.21	1.38 ± 0.32
GAUGAGCAAUAUUACGCCUG	-1.57 ± 0.26	-2.53 ± 0.41
UUUAAGCAAUAUUACGCGGA	-1.6 ± 0.098	-0.0901 ± 0.084
CGAGAGCAAUAUUACGAAAA		-2.18 ± 0.37
AAAAAGCAAUAUUACGGGAG	-2.11 ± 0.11	-1.04 ± 0.12
AAAUAGCAAUAUUACGAAUG	-1.37 ± 0.12	-1.62 ± 0.16
AGAAAGCAAUAUUACGAAUU	-0.791 ± 0.089	-1.32 ± 0.11
GUGUAGCAAUAUUACGUAUA	-2.85 ± 0.49	-0.725 ± 0.15
CAGCAGCAAUAUUACGUACA	-2.34 ± 0.15	-1.97 ± 0.16
CGGUAGCAAUAUUACGUCAG	-0.671 ± 0.15	-1.09 ± 0.17
CGCAAGCAAUAUUACGUAGU	-3.1 ± 0.097	-2.75 ± 0.098
ACAGAGCAAUAUUACGCCGC	-3.09 ± 0.48	-1.07 ± 0.36
GUCUAGCAAUAUUACGGGCU	-3.5 ± 0.27	-3.73 ± 0.3
CGAAAGCAAUAUUACGGGCG	-0.207 ± 0.098	-0.157 ± 0.13
GGACAGCAAUAUUACGACAC	-0.596 ± 0.1	0.167 ± 0.13
CGGAAGCAAUAUUACGCUGU	-3.49 ± 0.15	-1.3 ± 0.08
